Test results: paper PMC10950856, “Structure of orthoreovirus RNA chaperone σNS, a component of viral replication factories” (Nature Communications, 2024)
Numbering of substitutions follows the chain as printed. Names and notes keep the numbering of the source. Values joined by “and” are separate entries in the source; they are usually repeats but may differ in a detail not shown here. Identical values can stand only once.

B1: wildtype (WT) σNS (mammalian orthoreovirus, strain type 3 Dearing) (natural protein)
chain: MASSLRAAISKIKRDDVGQQVCPNYVMLRSSVTTKVVRNVVEYQIRTGGFFSCLAMLRPLQYAKRERLLGQRNLERISTRDILQTRDLHSLCMPTPDAPMSNHQASTMRELICSYFKVDHADGLKYIPMDERYSPSSLARLFTMGMAGLHITTEPSYKRVPIMHLAADLDCMTLALPYMITLDGDTVVPVAPTLSAEQLLDDGLKGLACMDISYGCEVDANSRPAGDQSMDSSRCINELYCEETAEAICVLKTCLVLNCMQFKLEMDDLAHNAAELDKIQMMIPFSERVFRMASSFATIDAQCFRFCVMMKDKNLKIDMRETTRLWTRSASDDSVATSSLSISLDRGRWVAADASDARLLVFPIRV
notes: σNS nonstructural protein of mammalian orthoreovirus, strain type 3 Dearing; synthesized gene in pET28; source: E. coli DE3 cells, purified (Ni-NTA, TEV cleavage, Q column, S200 SEC); not shown: His tag, N-terminal, cleaved
B2: σNS-R6A (native, without Se-Met substitution) (natural protein)
chain: B1 chain with R6A
notes: σNS nonstructural protein of mammalian orthoreovirus, strain type 3 Dearing, with R6A; synthesized gene in pET28; Dimer in solution (~80 kDa); The N-terminal arm is disordered in the crystal with bile acid derivatives; also called native σNS-R6A; σNS R6A mutant; source: E. coli DE3 cells, purified (Ni-NTA, TEV cleavage, Q column, S200 SEC); not shown: His tag, N-terminal, cleaved
B3: selenomethionine (Se-Met)-substituted σNS-R6A (natural protein)
chain: B1 chain with R6A
modifications: selenomethionine in place of methionine (Se-Met-substituted; Mse 1 named)
notes: σNS nonstructural protein of mammalian orthoreovirus, strain type 3 Dearing, with R6A; synthesized gene in pET28; Octamer by SEC; helical assembly of dimers in the crystal; Residue 1 (Mse 1) is seen in the structure; also called Se-Met σNS-R6A; source: E. coli B834 cells in medium with Se-Met, purified (Ni-NTA, TEV cleavage, Q column, S200 SEC); not shown: His tag, N-terminal, cleaved
B4: σNS-ΔN17 (σNS lacking the N-terminal 17 residues) (domain or fragment)
chain: GQQVCPNYVMLRSSVTTKVVRNVVEYQIRTGGFFSCLAMLRPLQYAKRERLLGQRNLERISTRDILQTRDLHSLCMPTPDAPMSNHQASTMRELICSYFKVDHADGLKYIPMDERYSPSSLARLFTMGMAGLHITTEPSYKRVPIMHLAADLDCMTLALPYMITLDGDTVVPVAPTLSAEQLLDDGLKGLACMDISYGCEVDANSRPAGDQSMDSSRCINELYCEETAEAICVLKTCLVLNCMQFKLEMDDLAHNAAELDKIQMMIPFSERVFRMASSFATIDAQCFRFCVMMKDKNLKIDMRETTRLWTRSASDDSVATSSLSISLDRGRWVAADASDARLLVFPIRV
notes: σNS nonstructural protein of mammalian orthoreovirus, strain type 3 Dearing, truncated by the N-terminal 17 residues; synthesized gene in pET28; Dimer in solution and in the crystal; source: E. coli DE3 cells, purified (Ni-NTA, TEV cleavage, Q column, S200 SEC); not shown: His tag, N-terminal, cleaved

How the values were obtained:
[1] = target: the molecule itself; test: SEC; S200 16/60-increase column, 10 mM HEPES (pH 8.0), 150 mM NaCl, after anion-exchange chromatography; size of the oligomer from the elution volume
[2] = target: the molecule itself; test: not stated; in solution; the method is not named for this construct (the constructs were purified on an S200 16/60-increase column)

| Protein | stoichiometry N [1] | stoichiometry N [2] |
| --- | --- | --- |
| B1 | 10 and 8 | – |
| B2 | 2 | – |
| B3 | 8 | – |
| B4 | – | 2 |
